For data set [1], the target named is T1, variant nuclease E154G combination (P14R, D32R, I61R, E311R, E154G).
T1 chain: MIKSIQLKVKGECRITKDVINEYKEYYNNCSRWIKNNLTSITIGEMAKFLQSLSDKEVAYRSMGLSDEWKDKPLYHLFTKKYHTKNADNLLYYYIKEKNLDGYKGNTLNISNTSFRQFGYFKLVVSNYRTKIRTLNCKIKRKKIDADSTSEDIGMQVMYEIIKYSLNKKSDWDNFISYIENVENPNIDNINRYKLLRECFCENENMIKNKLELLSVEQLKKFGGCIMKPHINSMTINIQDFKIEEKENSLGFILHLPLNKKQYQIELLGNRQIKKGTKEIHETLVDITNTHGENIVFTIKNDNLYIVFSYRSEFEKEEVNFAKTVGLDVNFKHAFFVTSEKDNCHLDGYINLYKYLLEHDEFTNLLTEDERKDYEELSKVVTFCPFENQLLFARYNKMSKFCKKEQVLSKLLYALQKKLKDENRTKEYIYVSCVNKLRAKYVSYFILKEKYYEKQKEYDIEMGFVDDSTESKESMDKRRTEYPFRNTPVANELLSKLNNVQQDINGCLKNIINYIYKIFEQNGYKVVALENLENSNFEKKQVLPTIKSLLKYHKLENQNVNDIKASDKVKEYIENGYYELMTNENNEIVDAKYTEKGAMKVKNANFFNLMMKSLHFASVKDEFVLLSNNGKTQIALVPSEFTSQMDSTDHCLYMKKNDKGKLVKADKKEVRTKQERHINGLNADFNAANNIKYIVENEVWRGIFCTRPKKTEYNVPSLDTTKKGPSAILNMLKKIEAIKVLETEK
The data set can be described thus: cell_activity; PAM 5'-TTTA-3'. Conditions: tags: pcDNA3.1 expression. Summed up:
(§1)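 HEK293T cells were lipofected with nuclease plasmid (pcDNA3.1 backbone) plus RNA guide plasmid, with guide omitted in negative controls. After ~72 h cells were lysed in QuickExtract and % indels were derived from NGS reads, averaged over two bioreplicates and two technical replicates.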

Data set [2] addresses T2, variant nuclease D590G combination (P14R, D32R, I61R, E311R, D590G).
T2 chain: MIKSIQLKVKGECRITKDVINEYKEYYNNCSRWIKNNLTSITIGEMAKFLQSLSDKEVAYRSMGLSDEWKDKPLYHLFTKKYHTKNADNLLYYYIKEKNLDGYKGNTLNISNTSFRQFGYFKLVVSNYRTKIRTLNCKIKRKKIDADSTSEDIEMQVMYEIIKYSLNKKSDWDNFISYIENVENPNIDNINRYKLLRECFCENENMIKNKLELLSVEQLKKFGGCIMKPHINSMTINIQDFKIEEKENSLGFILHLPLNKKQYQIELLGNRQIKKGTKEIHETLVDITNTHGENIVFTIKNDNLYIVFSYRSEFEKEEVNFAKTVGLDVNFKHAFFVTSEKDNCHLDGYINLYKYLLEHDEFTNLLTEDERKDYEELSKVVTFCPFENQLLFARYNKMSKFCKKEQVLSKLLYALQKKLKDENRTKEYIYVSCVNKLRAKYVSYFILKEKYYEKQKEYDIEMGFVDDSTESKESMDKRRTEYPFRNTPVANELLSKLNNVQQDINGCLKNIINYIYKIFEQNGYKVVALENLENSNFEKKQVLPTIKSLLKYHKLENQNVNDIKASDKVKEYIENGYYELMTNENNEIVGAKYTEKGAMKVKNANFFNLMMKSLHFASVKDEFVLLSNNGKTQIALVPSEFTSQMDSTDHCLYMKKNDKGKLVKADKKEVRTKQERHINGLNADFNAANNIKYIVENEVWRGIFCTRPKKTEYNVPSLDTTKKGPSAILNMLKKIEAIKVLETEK
The data set is described as follows: cell_activity; PAM 5'-TTTA-3'. To be noted: tags: pcDNA3.1 expression. Summed up: as §1

B1: VEGFA crRNA ; VEGFA target (ssRNA ; dsDNA)
RNA: CUUGUUGUAUAUGUCCUUUUAUAGGUAUUAAACAACUCCAGACCACCAAUGGGCAC
DNA 1: TCCAGACCACCAATGGGCAC
DNA 2: GTGCCCATTGGTGGTCTGGA
Regarding B1, the indel activity was 2.65 fold of WT in data set [1] and 2.68 fold of WT in data set [2].

The record behind these values is US20240035010, “COMPOSITIONS COMPRISING A VARIANT POLYPEPTIDE AND USES THEREOF” (Arbor Biotechnologies, Inc., published 2024).
